# Measurements reported in publication PMC8265641, “Enterococcal PrgU Provides Additional Regulation of Pheromone-Inducible Conjugative Plasmids”.
# B1: IRS1 ssDNA (ssDNA)
# DNA: GGAGCAGCGGGGAATGTATACAGTTCATGTATATGTTCCCCGCTTTTTTTG
# B2: IRS1 dsDNA (dsDNA)
# DNA 1: B1 DNA
# DNA 2: CAAAAAAAGCGGGGAACATATACATGAACTGTATACATTCCCCGCTGCTCC
# B3: IRS2 dsDNA (dsDNA)
# DNA 1: ACTCGTAAGAGCCGTGCAAACAACGTGTTGCATGGCTCTTTTTCTAC
# DNA 2: GTAGAAAAAGAGCCATGCAACACGTTGTTTGCACGGCTCTTACGAGT
# B4: IRS1 RNA (structured_RNA)
# RNA: GGAGCAGCGGGGAAUGUAUACAGUUCAUGUAUAUGUUCCCCGCUUUUUUUG
# Columns and labels:
# [1] = molecular target: PrgU-His (PrgU with C-terminal His tag) (Enterococcus faecalis (plasmid pCF10)); experiment: SEC-MALS; 200 ul PrgU-His at 1 mg/ml on Superdex 200 10/300 GL Increase, 20 mM potassium phosphate pH 7.0, 150 mM NaCl; self-association, dimer
# [2] = molecular target: PrgU-His (PrgU with C-terminal His tag) (Enterococcus faecalis (plasmid pCF10)); experiment: GEMMA (gas-phase electrophoretic mobility macromolecule analysis); main SEC peak of PrgU-His diluted to 0.01 mg/ml in 20 mM ammonium acetate, pH 7.8; self-association, dimer and monomer
# PrgU-His = PrgU-His (Enterococcus faecalis plasmid pCF10, UniProt Q5G3Q2 1-118); experiment: MST; MST: 20 mM KPi pH 7.0, 150 mM NaCl, 0.05% Tween 20, 0.1 U/ul RNase inhibitor, ~25 C; EMSA: 20 min at ~25 C, 1% agarose run at 4 C, buffer as previously described (not given); details: protein: recombinant, tags: C-terminal 10xHis with 3C protease site
molecule,measurement,setting,value
PrgU-His (PrgU with C-terminal His tag) (natural protein),stoichiometry N,[1],2
same,stoichiometry N,[2],2
ACUCGUAAGAGCCGUGCAAACAACGUGUUGCAUGGCUCUUUUUCUAC (structured_RNA) [IRS2 RNA],binding result,PrgU-His; hairpin,no binding
B1,binding result,PrgU-His,no binding
B2,binding result,PrgU-His; blunt,no binding
ACTCGTAAGAGCCGTGCAAACAACGTGTTGCATGGCTCTTTTTCTAC (ssDNA) [IRS2 ssDNA],binding result,PrgU-His,no binding
B3,binding result,PrgU-His; blunt,no binding
B4,binding result,PrgU-His; hairpin,no binding
